From the RNAGym collection of RNA variant scans (doi:10.1073/pnas.2313332121)
Fewer inactive variants are shown than the library holds.

B1: TPR 5TU (parent)
chain: GGAUCUUCUCGAUCUAACAAAAAAGACAAAUCUGCCACAAAGCUUGAGAGCAUCUUCGGAUGCAGAGGCGGCAGCCUUCGGUGGCGCGAUAGCGCCAACGUUCUCAACUAUGACACGCAAAACGCGUGCUCCGUUGAAUGGAGUUUAUCAUG

Variants of: B1
Assay: polymerase ribozyme fitness, log enrichment relative to wild type (log ratio); higher = more active; in vitro selection for triplet polymerase activity
Method in brief: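 After PCR construction and transcription, each subunit's mutant library from a heterodimeric triplet polymerase ribozyme was annealed with a biotinylated primer, the partner subunit and triplets. Incubation was frozen, at −7 °C, and extended constructs were gel-excised, bound to streptavidin beads and amplified by RT-PCR, in one selection round done in triplicate. Fitness is the logarithm of a genotype's enrichment divided by that of the wild type, from inverse-variance-weighted replicate averages of Illumina-sequenced inputs and outputs. The base of the logarithm is 2, and genotypes needed ≥10 input reads and ≥1 read per output.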

Row | Variant | polymerase ribozyme fitness (log ratio)
1 | A66G C114U | -4.17
2 | C69A G86A C149A | ≤ -4.2
3 | G65C C93A A97U C108U U109C | ≤ -4.2
4 | G62U C85U C96U C118U | -1.28
5 | G74C C99U | ≤ -4.2
6 | G62U C103U | -0.754
7 | C69A U90A A147C | ≤ -4.2
8 | G65A G126A | -0.138
9 | A73U G80A U134C | -1.91
10 | C75A C129G U146C | ≤ -4.2
11 | G67C C79G A97U C116A A142C | ≤ -4.2
12 | G62C C93U | -3.83
13 | G65A C131U | -0.0454
14 | C75G C87U | -3.2
15 | G65C G92A A137C G141C | ≤ -4.2
16 | A73U U144C | -1.49
17 | A73U G81A C118G A120U U135A | -3.75
18 | A66U C87G U90G U102A C132U | ≤ -4.2
19 | A73G C96G | -0.616
20 | G74C G80C G92U C103G A106U | ≤ -4.2
21 | G67C G68C C118U A120G | ≤ -4.2

Row | Variant | polymerase ribozyme fitness (log ratio)
22 | C63G G70A | -3.15
23 | G74A G84C C95U A137C | ≤ -4.2
24 | C75A G80C C96G C99A G117A | ≤ -4.2
25 | C69G A73G | -2.59
26 | A66C A106G U144G | ≤ -4.2
27 | A73U C93U A120G | -2.61
28 | C75G G141C | -4.12
29 | A73U A97U A115G | -3.45
30 | A73G C75U C99A U101G A142G | ≤ -4.2
31 | A64G G68U U144A | ≤ -4.2
32 | C63G C87U C129G U139C G143U | ≤ -4.2
33 | C63A G84A A121C A142U U145A A150C | ≤ -4.2
34 | A64C G84A G128A | ≤ -4.2
35 | G67A G83A | ≤ -4.2
36 | G67A C72A A142U A150G | ≤ -4.2
37 | G67U G74C A107U C123G | ≤ -4.2
38 | G71A C132U | -3.5
39 | G67U U146A | -2.89
40 | G71A C95U | -3.12
41 | A64U A66G U77C C96G C103G C116A | ≤ -4.2
42 | A73G G83C U145G | -2.01

Row | Variant | polymerase ribozyme fitness (log ratio)
43 | G65A G70A G94A C116U G143U | ≤ -4.2
44 | C72A C103A | ≤ -4.2
45 | A73U C96G A98U A120U A137G | -2.92
46 | A64C G83C U139C A150C G152U | ≤ -4.2
47 | A66G A97U | ≤ -4.2
48 | C69A C95A C96G G152U | -3.59
49 | C63A U144C U145A | -2.97
50 | A66G A73C C85G A107U | ≤ -4.2
51 | G68A C99A | ≤ -4.2
52 | C72G U146G | ≤ -4.2
53 | G68C A122C U127A | ≤ -4.2
54 | G68C C93U | -4.04
55 | A64C C72G A91C A106U U109G C123A U148C | ≤ -4.2
56 | A73U C76U | -1.32
57 | C72U C87A A137C U139A | ≤ -4.2
58 | G67C G88U C149A | ≤ -4.2
59 | G62C G70A C79G G86C A142C C149U | ≤ -4.2
60 | A64U G84U | ≤ -4.2
61 | G67C C93A G133A U151G | ≤ -4.2
62 | G67U C96G | -3.31
63 | C75G G86U C95U C99U | ≤ -4.2

Row | Variant | polymerase ribozyme fitness (log ratio)
64 | G62C C63U | -2.25
65 | A73C A106U A110C | ≤ -4.2
66 | C69G C108U U148A | ≤ -4.2
67 | A64G G68A C85A | ≤ -4.2
68 | C63A G70A G84A | ≤ -4.2
69 | C75G G81A A122G | ≤ -4.2
70 | C72U G86A G100C C131A U135A | ≤ -4.2
71 | G70A U77G U78G C87A A97C A122U | ≤ -4.2
72 | A66C U134C | ≤ -4.2
73 | C69U C95U U101G G152C | -3.5
74 | G62U G65A C103A | -3.94
75 | G67C C125G | ≤ -4.2
76 | C63G C93A | -1.77
77 | C69A A97G A98U U104A G124A | -2.14
78 | A73C G92U C116G U144C | ≤ -4.2
79 | G71C C79U A91C U135G | ≤ -4.2
80 | C75G U82G C87U C131G U134A | ≤ -4.2
81 | C63G G92A U145G | -2.07
82 | G62C G67C U134C A147G | ≤ -4.2
83 | G67U G70U G81A G83U A97U | ≤ -4.2
